{"source": "paper PMC3635987", "molecular_target": "PrgH_(11–120), cytoplasmic domain of the inner-membrane ring protein PrgH (Salmonella enterica serovar Typhimurium) (UniProt P41783)", "experiment": "crystal structure; PrgH_(11–120) at 5–10 mg/ml, 20°C, 15–20% PEG 6000, 0.02 M CaCl2, 0.1 M HEPES pH 6.5; packing in the asymmetric unit", "data": [{"substance": "PrgH_(11–120), cytoplasmic domain of the inner-membrane ring protein PrgH (from UniProt P41783 11-120) (domain or fragment)", "values": [{"measurement": "stoichiometry N", "result": 6}]}]}
